In paper PMC9396398, “Crystal structure of Ankyrin-G in complex with a fragment of Neurofascin reveals binding mechanisms required for integrity of the axon initial segment” (The Journal of Biological Chemistry, 2022):

Legend:
[1] = molecular target: T1, AnkG R1-24 V282Q (Rattus norvegicus); experiment: ITC
T1 chain: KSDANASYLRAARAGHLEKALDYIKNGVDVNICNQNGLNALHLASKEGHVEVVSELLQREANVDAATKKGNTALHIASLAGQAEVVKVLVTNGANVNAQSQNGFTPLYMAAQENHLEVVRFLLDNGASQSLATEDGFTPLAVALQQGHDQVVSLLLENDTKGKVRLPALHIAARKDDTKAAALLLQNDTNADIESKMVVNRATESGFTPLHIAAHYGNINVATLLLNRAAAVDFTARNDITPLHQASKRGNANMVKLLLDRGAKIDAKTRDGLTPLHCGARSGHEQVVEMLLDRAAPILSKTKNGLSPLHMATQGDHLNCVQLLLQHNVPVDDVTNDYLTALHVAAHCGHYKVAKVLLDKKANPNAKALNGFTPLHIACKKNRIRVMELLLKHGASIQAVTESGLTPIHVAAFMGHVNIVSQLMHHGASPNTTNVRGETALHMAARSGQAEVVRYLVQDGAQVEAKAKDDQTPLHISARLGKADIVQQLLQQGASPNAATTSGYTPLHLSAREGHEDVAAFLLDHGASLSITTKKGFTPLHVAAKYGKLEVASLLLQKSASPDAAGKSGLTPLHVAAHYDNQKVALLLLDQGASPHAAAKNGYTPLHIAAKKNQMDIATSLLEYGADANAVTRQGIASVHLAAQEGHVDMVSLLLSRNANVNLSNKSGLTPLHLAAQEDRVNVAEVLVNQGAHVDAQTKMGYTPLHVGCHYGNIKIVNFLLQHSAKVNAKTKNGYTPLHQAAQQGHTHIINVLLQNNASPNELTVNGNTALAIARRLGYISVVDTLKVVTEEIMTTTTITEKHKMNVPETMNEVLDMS

[2] = molecular target: T2, AnkG ANK repeats (residues 38-855, R1-24) (UniProt O70511 38-855); experiment: ITC; VP-ITC at 25 °C; 50 mM Tris, 100 mM NaCl, 1 mM EDTA, 1 mM DTT, pH 7.8; Nfasc proteins (200 μM) in the syringe, AnkG proteins (20 μM) in the cell; one-site binding model; conditions: both partners purified
T2 construct: Ankyrin-G (AnkG), ANK repeats R1-24, residues 38-855; In human Q12955 the same residues seem to stand 8 lower (I277 here = I269 there); Cloned into a modified pET32a vector; the tag is said to be removed only for the crystallisation proteins; also called AnkG R1-24; Ankyrin-G ankyrin repeats; source: E. coli BL21 (DE3), purified (Ni-NTA, size-exclusion chromatography)
T2 sequence (looked up): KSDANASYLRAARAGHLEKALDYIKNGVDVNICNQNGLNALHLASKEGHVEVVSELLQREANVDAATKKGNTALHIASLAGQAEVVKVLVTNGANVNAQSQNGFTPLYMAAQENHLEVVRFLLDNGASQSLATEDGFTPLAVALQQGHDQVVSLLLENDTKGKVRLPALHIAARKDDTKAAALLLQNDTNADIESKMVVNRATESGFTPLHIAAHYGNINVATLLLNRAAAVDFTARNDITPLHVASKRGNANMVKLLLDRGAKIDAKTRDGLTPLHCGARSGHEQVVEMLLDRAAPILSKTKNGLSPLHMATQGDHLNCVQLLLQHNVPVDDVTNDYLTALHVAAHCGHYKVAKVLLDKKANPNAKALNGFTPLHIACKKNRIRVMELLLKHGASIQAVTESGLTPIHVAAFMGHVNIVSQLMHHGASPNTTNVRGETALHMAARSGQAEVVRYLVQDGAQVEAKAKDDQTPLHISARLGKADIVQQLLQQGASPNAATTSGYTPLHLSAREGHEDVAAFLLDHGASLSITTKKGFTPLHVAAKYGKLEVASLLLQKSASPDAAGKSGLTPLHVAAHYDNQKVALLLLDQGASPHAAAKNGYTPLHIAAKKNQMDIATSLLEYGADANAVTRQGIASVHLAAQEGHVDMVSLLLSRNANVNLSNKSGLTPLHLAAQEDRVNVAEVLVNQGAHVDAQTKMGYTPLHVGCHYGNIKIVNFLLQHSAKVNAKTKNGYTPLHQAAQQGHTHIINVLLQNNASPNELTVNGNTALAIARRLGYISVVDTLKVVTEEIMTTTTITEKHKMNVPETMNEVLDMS

[3] = molecular target: T3, AnkG R8-16 (AnkG 275 to 571) (UniProt O70511 275-571); experiment: as above; conditions: both partners purified
T3 construct: Ankyrin-G (AnkG), ANK repeats 8-16, residues 275-571 (limits are told for the crystallisation construct); In the crystal it stood fused behind the Nfasc ABD; also called eighth to sixteenth ANK repeats; source: E. coli BL21 (DE3), purified (Ni-NTA, size-exclusion chromatography)
T3 sequence (looked up): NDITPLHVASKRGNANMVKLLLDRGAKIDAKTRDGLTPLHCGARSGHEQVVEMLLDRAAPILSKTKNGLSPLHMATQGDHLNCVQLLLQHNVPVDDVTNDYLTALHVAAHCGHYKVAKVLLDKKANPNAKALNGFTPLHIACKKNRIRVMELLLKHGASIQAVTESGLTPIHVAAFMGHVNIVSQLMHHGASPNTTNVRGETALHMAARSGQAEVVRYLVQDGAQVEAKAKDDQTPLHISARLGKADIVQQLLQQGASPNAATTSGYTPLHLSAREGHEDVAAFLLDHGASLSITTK

Kd [1]: 1300 nM
Kd [2]: ~220 nM
Kd [3]: ~1200 nM
B1: Nfasc ankyrin-binding domain (ABD, residues 1187-1214) (domain or fragment, UniProt P97685 1187-1214, looked up)
chain: SDDSLVDYGEGGEGQFNEDGSFIGQYTV
notes: also called Nfasc ABD; source: E. coli BL21 (DE3), purified (Ni-NTA, size-exclusion chromatography)
